Key:
Experiment in all cases: cross-linking
[1] = molecular target: CheA Q10C (single-cysteine mutant of cysteine-less CheA) (Salmonella typhimurium) (UniProt P09384)
[2] = molecular target: CheA Q10C/E311C (dicysteine mutant of cysteine-less CheA) (Salmonella typhimurium) (UniProt P09384)
[3] = molecular target: CheA Q10C/E369C (dicysteine mutant of cysteine-less CheA) (Salmonella typhimurium) (UniProt P09384)
[4] = molecular target: CheA Q125C (single-cysteine mutant of cysteine-less CheA) (Salmonella typhimurium) (UniProt P09384)
[5] = molecular target: CheA L627C (single-cysteine mutant of cysteine-less CheA) (Salmonella typhimurium) (UniProt P09384)
[6] = molecular target: CheA Q10C/Q454C (dicysteine mutant of cysteine-less CheA) (Salmonella typhimurium) (UniProt P09384)
[7] = molecular target: CheA A37C (single-cysteine mutant of cysteine-less CheA) (Salmonella typhimurium) (UniProt P09384)
[8] = molecular target: CheA Q10C/S514C (dicysteine mutant of cysteine-less CheA) (Salmonella typhimurium) (UniProt P09384)
[9] = molecular target: CheA E311C (single-cysteine mutant of cysteine-less CheA) (Salmonella typhimurium) (UniProt P09384)
[10] = molecular target: CheA R171C (single-cysteine mutant of cysteine-less CheA) (Salmonella typhimurium) (UniProt P09384)
[11] = molecular target: CheA Q10C/S351C (dicysteine mutant of cysteine-less CheA) (Salmonella typhimurium) (UniProt P09384)
[12] = molecular target: CheA Q596C (single-cysteine mutant of cysteine-less CheA) (Salmonella typhimurium) (UniProt P09384)
[13] = molecular target: CheA S514C (single-cysteine mutant of cysteine-less CheA) (Salmonella typhimurium) (UniProt P09384)
[14] = molecular target: CheA Q10C/E460C (dicysteine mutant of cysteine-less CheA) (Salmonella typhimurium) (UniProt P09384)
[15] = molecular target: CheA A114C (single-cysteine mutant of cysteine-less CheA) (Salmonella typhimurium) (UniProt P09384)
[16] = molecular target: CheA Q10C/M469C (dicysteine mutant of cysteine-less CheA) (Salmonella typhimurium) (UniProt P09384)
[17] = molecular target: CheA G636C (single-cysteine mutant of cysteine-less CheA) (Salmonella typhimurium) (UniProt P09384)
[18] = molecular target: CheA R607C (single-cysteine mutant of cysteine-less CheA) (Salmonella typhimurium) (UniProt P09384)
[19] = molecular target: CheA E109C (single-cysteine mutant of cysteine-less CheA) (Salmonella typhimurium) (UniProt P09384)
[20] = molecular target: CheA M469C (single-cysteine mutant of cysteine-less CheA) (Salmonella typhimurium) (UniProt P09384)
[21] = molecular target: CheA Q10C/D359C (dicysteine mutant of cysteine-less CheA) (Salmonella typhimurium) (UniProt P09384)
[22] = molecular target: CheA Q10C/E425C (dicysteine mutant of cysteine-less CheA) (Salmonella typhimurium) (UniProt P09384)

“CheA Q10C (single-cysteine mutant of cysteine-less CheA) (from UniProt P09384 1-671) (enzyme)” showed a fraction (%) intradimer [1] of 100%.

In the case of “CheA Q10C/E311C (dicysteine mutant of cysteine-less CheA) (from UniProt P09384 1-671) (enzyme)”, the fraction (%) intradimer [2] is reported as 87%.

“CheA Q10C/E369C (dicysteine mutant of cysteine-less CheA) (from UniProt P09384 1-671) (enzyme)” gave a fraction (%) intradimer [3] of 81%.

Substance “CheA Q125C (single-cysteine mutant of cysteine-less CheA) (from UniProt P09384 1-671) (enzyme)” has a fraction (%) intradimer [4] of 81%.

Work on “CheA L627C (single-cysteine mutant of cysteine-less CheA) (from UniProt P09384 1-671) (enzyme)” yielded a fraction (%) intradimer [5] of 100%.

“CheA Q10C/Q454C (dicysteine mutant of cysteine-less CheA) (from UniProt P09384 1-671) (enzyme)” was tested, and the fraction (%) intradimer [6] was 100%.

Substance “CheA A37C (single-cysteine mutant of cysteine-less CheA) (from UniProt P09384 1-671) (enzyme)” has a fraction (%) intradimer [7] of 46%.

Substance “CheA Q10C/S514C (dicysteine mutant of cysteine-less CheA) (from UniProt P09384 1-671) (enzyme)” has a fraction (%) intradimer [8] of 49%.

In the case of “CheA E311C (single-cysteine mutant of cysteine-less CheA) (from UniProt P09384 1-671) (enzyme)”, the fraction (%) intradimer [9] is reported as 93%.

For “CheA R171C (single-cysteine mutant of cysteine-less CheA) (from UniProt P09384 1-671) (enzyme)”, the fraction (%) intradimer [10] was 100%.

Substance “CheA Q10C/S351C (dicysteine mutant of cysteine-less CheA) (from UniProt P09384 1-671) (enzyme)” has a fraction (%) intradimer [11] of 100%.

Substance “CheA Q596C (single-cysteine mutant of cysteine-less CheA) (from UniProt P09384 1-671) (enzyme)” has a fraction (%) intradimer [12] of 100%.

“CheA S514C (single-cysteine mutant of cysteine-less CheA) (from UniProt P09384 1-671) (enzyme)” gave a fraction (%) intradimer [13] of 50%.

Substance “CheA Q10C/E460C (dicysteine mutant of cysteine-less CheA) (from UniProt P09384 1-671) (enzyme)” has a fraction (%) intradimer [14] of 91%.

For “CheA A114C (single-cysteine mutant of cysteine-less CheA) (from UniProt P09384 1-671) (enzyme)”, the fraction (%) intradimer [15] was 84%.

With “CheA Q10C/M469C (dicysteine mutant of cysteine-less CheA) (from UniProt P09384 1-671) (enzyme)” the fraction (%) intradimer [16] was 100%.

Work on “CheA G636C (single-cysteine mutant of cysteine-less CheA) (from UniProt P09384 1-671) (enzyme)” yielded a fraction (%) intradimer [17] of 83%.

For “CheA R607C (single-cysteine mutant of cysteine-less CheA) (from UniProt P09384 1-671) (enzyme)”, the fraction (%) intradimer [18] was 100%.

Substance “CheA E109C (single-cysteine mutant of cysteine-less CheA) (from UniProt P09384 1-671) (enzyme)” has a fraction (%) intradimer [19] of 82%.

In the case of “CheA M469C (single-cysteine mutant of cysteine-less CheA) (from UniProt P09384 1-671) (enzyme)”, the fraction (%) intradimer [20] is reported as 72%.

“CheA Q10C/D359C (dicysteine mutant of cysteine-less CheA) (from UniProt P09384 1-671) (enzyme)” showed a fraction (%) intradimer [21] of 86%.

In the case of “CheA Q10C/E425C (dicysteine mutant of cysteine-less CheA) (from UniProt P09384 1-671) (enzyme)”, the fraction (%) intradimer [22] is reported as 100%.
